Source: publication PMC10237670, “Biochemical properties of naturally occurring human bloom helicase variants”

Key:
[1] = molecular target: T1, BLMcore P868L (Homo sapiens, UniProt P54132 636-1298, P868L); experiment: EMSA; 5 mM MgCl2; distinct shift; estimated apparent KD; 50 mM Tris-HCl pH 7.5, 50 mM KCl, 5 mM MgCl2, 1 mM DTT, 0.1 mg/mL BSA, 40 nM DNA, 30 min room temperature; 5% gel in TBE + 100 mM KCl at 4 C; conditions: protein: recombinant; (HisTrap purified); label: 3'-FAM on oAV320 (strand 2); 18 bp duplex, 3' overhang 39 nt on strand 1
[2] = molecular target: T2, BLMcore G1120R (Homo sapiens, UniProt P54132 636-1298, G1120R); experiment: as above; conditions: protein: recombinant; (HisTrap purified); label: 3'-FAM on oAV320 (strand 2); 18 bp duplex, 3' overhang 39 nt on strand 1
[3] = molecular target: T1, BLMcore P868L; experiment: EMSA; 5 mM MgCl2; smear; estimated apparent KD; 50 mM Tris-HCl pH 7.5, 50 mM KCl, 5 mM MgCl2, 1 mM DTT, 0.1 mg/mL BSA, 40 nM DNA, 30 min room temperature; 5% gel in TBE + 100 mM KCl at 4 C; conditions: protein: recombinant, (HisTrap purified)
[4] = molecular target: BLMcore K869A K870A (Homo sapiens, UniProt P54132 636-1298, K869A;K870A); experiment: as above; conditions: protein: recombinant, (HisTrap purified)
[5] = molecular target: T2, BLMcore G1120R; experiment: as above; conditions: protein: recombinant, (HisTrap purified)
[6] = label: 3'-FAM, intramolecular G4 (folded in 100 mM KCl) with 3' T-rich ssDNA tail

T2 sequence (P54132 636-1298 G1120R): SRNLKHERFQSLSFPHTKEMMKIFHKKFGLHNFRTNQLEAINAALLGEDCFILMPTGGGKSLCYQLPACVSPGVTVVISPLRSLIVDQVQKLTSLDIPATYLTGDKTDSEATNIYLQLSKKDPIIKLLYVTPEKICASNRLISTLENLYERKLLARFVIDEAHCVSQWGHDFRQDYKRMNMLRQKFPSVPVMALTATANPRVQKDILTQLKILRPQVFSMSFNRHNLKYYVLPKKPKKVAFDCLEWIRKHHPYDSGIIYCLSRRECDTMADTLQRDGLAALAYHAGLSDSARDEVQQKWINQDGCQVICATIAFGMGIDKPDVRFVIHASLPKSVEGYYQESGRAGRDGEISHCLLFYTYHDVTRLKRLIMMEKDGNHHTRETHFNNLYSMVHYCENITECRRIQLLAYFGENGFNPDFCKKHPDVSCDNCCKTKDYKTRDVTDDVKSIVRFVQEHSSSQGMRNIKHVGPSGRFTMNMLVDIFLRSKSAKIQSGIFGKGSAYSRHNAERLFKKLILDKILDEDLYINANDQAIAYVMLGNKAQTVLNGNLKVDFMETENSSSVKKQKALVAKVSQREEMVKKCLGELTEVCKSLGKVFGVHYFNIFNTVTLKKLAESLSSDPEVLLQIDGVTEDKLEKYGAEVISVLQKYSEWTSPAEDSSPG
T1 sequence (P54132 636-1298 P868L): as the sequence (P54132 636-1298 G1120R) above, with P233L, R485G counted along it
Sequence of BLMcore K869A K870A (P54132 636-1298 K869A/K870A): as the sequence (P54132 636-1298 G1120R) above, with K234A, K235A, R485G counted along it

B1: partial dsDNA with 3' ssDNA overhang (oRC32/FAM-oAV320) (dsDNA)
DNA 1: TGGCGACGGCAGCGAGGCTTAGGGTTAGCGTTAGCGTTAGGGTTTTTTTTTTTTTTT
DNA 2: GCCTCGCTGCCGTCGCCA
For B1, which Kd [1] is on record?
Its Kd is ~62.5 nM.

And the Kd [2]?
Its Kd is ~62.5 nM.

For GGGTTAGGGTTAGGGTTAGGGTTTTTTTTTT (structured_DNA) [G4 DNA with 3' ssDNA overhang (FAM-oRC96)], which Kd [3, 6] is on record?
Its Kd is ~125 nM.

And the Kd [4, 6]?
The Kd was ~625 nM.

What about the Kd [5, 6] of the same binder?
The Kd was ~250 nM.

TTTTTTTTTTTTTTTTTTTTTTTTTTTTTT (ssDNA) [FAM-dT30 (ssDNA)] was tested. Which Kd ([3]; single strand) did it give?
Its Kd is ~62.5 nM.

And the Kd ([4]; single strand)?
The Kd was ~312 nM.

What about the Kd ([5]; single strand) of the same binder?
Its Kd is ~62.5 nM.
